In patent US20230391828A1 (TECHNISCHE UNIVERSIT T DRESDEN, published 2023):
Bridge positions count the residues as written; N and C are the ends. Square brackets hold non-standard residues; d marks the D form. R8 = C=CCCCCCC[C@@](C)(N)C(=O)O; S5 = C=CCCC[C@](C)(N)C(=O)O; Pra = C#CC[C@H](N)C(=O)O

How the values were obtained:
Cullin 1 = biological target: T1, Cullin 1 (human (HeLa K cells), UniProt Q13616 1-776); assay: pull-down from HeLa K cell extract with G3-6Pra on azide magnetic beads, western blot
T1 construct: Detected by western blot after pull-down from HeLa K cell extract; also called Cullin 1, subunit of E3 ubiquitin ligases related to the APC/C
Method: (§1) As a control, G3-N4Pra negative control molecule was used. Western blot analysis was performed and indicated proteins were detected using near-infrared fluorescence imaging. GAPDH serves as a control for unspecific binding.
(§2) In mean time, inhibitor molecules containing Propargyl (Pra) chemical group were covalently attached to the azide agarose or azide magnetic resin (Jena Bioscience) by Cu(I)-catalysed azide-alkyne cycloaddition reaction. […] The reaction was catalysed by 1 mM CuSO₄, 0.1 mM TBTA (Sigma-Aldrich) and 1 mM Sodium ascorbate and was performed on the rotating wheel for 30 min at room temperature in the volume of 1 ml. Subsequently, the resin was washed 5 times with the extraction buffer. The inhibitor-agarose resin was added to 1 mg of HeLa K cell extract and the inhibitor-magnetic resin was added to 0.5 mg of HeLa K cell extract followed by incubation at 4° C. for 2 h. Followed by washing the resin 5 times with the extraction buffer. Pull-down proteins were eluted by boiling for 15 min with 1×LDS sample buffer supplemented with 100 mM DTT (agarose resin) or by incubation with 1×LDS sample buffer for 10 min at room temperature followed by taking supernatant that was supplemented with 100 mM DTT and boiling it for 10 min. Samples were subjected to SDS PAGE and Western blot analysis.

RBX1 = biological target: T2, RBX1 (human (HeLa K cells), UniProt P62877 2-108); assay: as above
T2 construct: Detected by western blot after pull-down from HeLa K cell extract
T2 sequence (P62877 2-108 limits assumed): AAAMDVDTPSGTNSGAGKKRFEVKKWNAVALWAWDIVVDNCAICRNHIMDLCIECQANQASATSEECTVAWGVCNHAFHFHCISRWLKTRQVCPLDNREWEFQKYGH
Method: as §1, §2

T1 sequence (Q13616 whole entry): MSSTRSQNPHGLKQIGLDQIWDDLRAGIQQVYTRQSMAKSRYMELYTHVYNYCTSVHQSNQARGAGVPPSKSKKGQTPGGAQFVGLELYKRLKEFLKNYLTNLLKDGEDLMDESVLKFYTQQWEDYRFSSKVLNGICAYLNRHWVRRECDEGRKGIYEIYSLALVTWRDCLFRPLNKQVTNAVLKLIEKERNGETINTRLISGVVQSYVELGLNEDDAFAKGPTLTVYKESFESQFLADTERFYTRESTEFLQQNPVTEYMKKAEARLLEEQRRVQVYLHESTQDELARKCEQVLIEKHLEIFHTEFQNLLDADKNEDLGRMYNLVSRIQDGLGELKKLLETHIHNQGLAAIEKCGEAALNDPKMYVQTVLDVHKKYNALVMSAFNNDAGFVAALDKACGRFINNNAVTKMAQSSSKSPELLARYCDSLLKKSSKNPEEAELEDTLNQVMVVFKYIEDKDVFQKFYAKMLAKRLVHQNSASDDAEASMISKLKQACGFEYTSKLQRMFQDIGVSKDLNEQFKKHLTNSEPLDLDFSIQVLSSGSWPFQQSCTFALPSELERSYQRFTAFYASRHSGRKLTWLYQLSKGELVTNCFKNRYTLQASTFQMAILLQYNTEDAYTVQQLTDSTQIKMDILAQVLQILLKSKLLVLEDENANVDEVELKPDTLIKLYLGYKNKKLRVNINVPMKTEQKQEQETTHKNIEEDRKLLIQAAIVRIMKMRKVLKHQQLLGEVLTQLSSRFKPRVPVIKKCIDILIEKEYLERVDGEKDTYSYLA

binding result (Cullin 1): no binding
binding result (RBX1): no binding
B1: G3-6Pra, Ac-cyclo(4,11)-EWPraZIKEIQRXRRA-NH2 (peptide)
peptide: Ac-EW[Pra][R8]IKEIQR[S5]RRA-NH2
modifications: staple 4-11; not fully specified (residue 3); printed as Ac-cyclo(4,11)-EWWZIKEIQRXRRA-NH2
notes: In the pull-down it was covalently attached to azide magnetic beads through Pra; also called ID; NO; 37
